Test results as given in paper PMC3648639.

Target: untagged RNF8 FHA domain (UniProt O76064)
Test: ITC

Sequence of UniProt O76064 (O76064 38-92): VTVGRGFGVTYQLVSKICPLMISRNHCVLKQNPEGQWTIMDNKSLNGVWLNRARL

Substance: ICP0 pT67 peptide
- Kd: 833 nM
